# Experimental data reported in paper PMC10326445, “Affinity-enhanced RNA-binding domains as tools to understand RNA recognition”.
# Legend:
# [1] = target: FMRP RNA-AE (KH1 GKKG / KH2 RNA-KO, KH1-2 di-domain) (human (hFMRP), UniProt Q06787 216-425, T236K;H237K;K299D;N300D;del331-396); assay: NMR titration; Kd value only in figure; NMR titrations: 50 uM 15N-protein, 10 mM phosphate pH 6.9, 40 mM NaCl, 0.5 mM TCEP, protein:RNA 1:0 to 1:12; temperature not given; conditions: protein: recombinant; tags: N-terminal 6xHis, cleaved with HRV 3C; single strand
# [2] = target: FMRP RNA-WT (KH1 WT / KH2 RNA-KO, KH1-2 di-domain) (human (hFMRP), UniProt Q06787 216-425, K299D;N300D;del331-396); assay: NMR titration; unit prefix lost in text (printed M), uM inferred; NMR titrations: 50 uM 15N-protein, 10 mM phosphate pH 6.9, 40 mM NaCl, 0.5 mM TCEP, protein:RNA 1:0 to 1:12; temperature not given; conditions: protein: recombinant; tags: N-terminal 6xHis, cleaved with HRV 3C; single strand
Binder,binding signal [1],Kd [2]
GAGAC (ssRNA),~3 fold tighter than GAGCC,
UAGAC (ssRNA),2.5 fold weaker than UGGAC,
UGGAC (ssRNA),,418 ± 57.9 µM
GAGCC (ssRNA),~3 fold weaker than GAGAC,
